Measurements as given in PMC5206705 (Scientific Reports, 2017).

Molecular target: the molecule itself
Assay: SEC; preparative Superdex 200 in 50 mM Tris pH 8.0, 125 mM sodium chloride; elution at approximately 80 kDa against a 44 kDa monomer

B1: β-ketoacyl-acyl carrier protein synthase FabF from Listeria monocytogenes (enzyme, UniProt A0A0B8RFI6 1-413, looked up)
chain: MDKRRVVVTGIGAVTPIGNDAETSWENAKKGVNGVAKMTRLNPDDFPVKIAAELKDFDVEKYLEKKEARKMDRFTHYAIASAEMAVQDSGLVIDDSNANRVGVWIGSGIGGMETFETQYEIFLNRGHRRVSPFFVPMMIPDMGSGQVSIRFGAKGINSTTVTACATATNSIGDAFKVIERGDADAMITGGAEAPITKMSLAGFTANKALSLNPDPETACRPFDKDRDGFIIGEGAGIVILEEYEHAKARGAKIYAEIVGYGATGDAYHITAPAPNGEGAARAMKMAIDDAGLTPDKVDYINAHGTSTPYNDEYETQAIKTVFGDHAKKLAISSTKSMTGHTLGASGGIEAIFALLTIRDNIIAPTIHLKNQDEVCDLDYVPNEAREANVNVVISNSFGFGGHNATLVFKRIED
notes: FabF (β-ketoacyl-ACP synthase II) of Listeria monocytogenes, amplified from genomic DNA ATCC 19115D-5 with primers from the start to the stop codon; the construct encoded the full length protein; monomer about 44 kDa; Vector pMCSG21 with a TEV site; a few residues of the site may remain at the N-terminus after cleavage (surmise); also called LmFabF; β-ketoacyl-ACP synthase II; source: E. coli …
For B1, the “stoichiometry N” value was 2.
